For 15 molecules, Kd, koff and kon results are on record in US20260193326A1 (published 2026).

Assay [1] concerns the target T1, AAV9 (adeno-associated virus 9).
T1 construct: also called adeno-associated virus serotype 9
In words: SPR, AAV amine-coupled to CM5 chip.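 Also: nanobodies flowed as analyte at seven concentrations spanning 1–100 nM over immobilized AAV (500–800 RU), kinetic constants derived by fitting the binding curves.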
Procedure: (§1) AAV was amine-coupled to a CM5 sensor chip at a density of 500-800 response units (RU). Nanobodies were injected at seven concentrations (1-100 nM) with a flow rate of 45 μL/min, and chip regeneration was performed using glycine-HCl (pH 1.5). Binding curves at different nanobody concentrations were used to calculate kinetic parameters (Kₐ, Kd, KD) (Table 2 and FIG. 2).

In assay [2] the target is T2, AAV5 (adeno-associated virus 5).
T2 construct: also called adeno-associated virus serotype 5
In words: SPR, AAV amine-coupled to CM5 chip.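 Also: nanobodies flowed as analyte at seven concentrations spanning 1–100 nM over immobilized AAV (500–800 RU), kinetic constants derived by fitting the binding curves.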 Background: SPR reads the build-up and loss of mass on a sensor chip optically.
Procedure: as §1

For assay [3], the target named is T3, AAV8 (adeno-associated virus 8).
T3 construct: also called adeno-associated virus serotype 8
In words: SPR, AAV amine-coupled to CM5 chip.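 Also: nanobodies flowed as analyte at seven concentrations spanning 1–100 nM over immobilized AAV (500–800 RU), kinetic constants derived by fitting the binding curves.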
Procedure: as §1

The target of assay [4] is T4, AAV9.
T4 construct: also called adeno-associated virus serotype 9
Kind of assay: SPR, AAV on CM5 chip.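 Also: surface plasmon resonance with AAV amine-coupled to the chip as ligand, nanobodies injected as analyte over a concentration series, rate constants and affinity fitted from binding curves.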
Procedure: as §1

Assay [5] concerns the target T5, AAV5.
T5 construct: also called adeno-associated virus serotype 5
In words: SPR, AAV on CM5 chip.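 Also: surface plasmon resonance with AAV amine-coupled to the chip as ligand, nanobodies injected as analyte over a concentration series, rate constants and affinity fitted from binding curves.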
Procedure: as §1

Assay [6] addresses T6, AAV8.
T6 construct: also called adeno-associated virus serotype 8
In words: SPR, AAV on CM5 chip.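 Also: surface plasmon resonance with AAV amine-coupled to the chip as ligand, nanobodies injected as analyte over a concentration series, rate constants and affinity fitted from binding curves.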
Procedure: as §1

Residue numbers refer to the chain shown, from its start.

B1: A4-055 (VHH)
VHH: VQLQESGGGLVQPGGSLRLSCAASGSIFSINTMGWYRQAPGKQRELVAAVTRGGSTNYADSVKGRFTISRDNAKNTVYLQMNSLRPEDTAVYYCHVDEVRQSSWTTSNLWGQGTQVTVSS
As usually defined, the Kd is the constant that tells how readily two partners part at equilibrium. Higher therefore signals a looser complex. The term koff denotes the rate constant with which the complex falls apart. A higher koff goes with fast dissociation. The kon is the second-order rate constant of association. On to B1, for which, in the assay with AAV9 [1], the affinity, expressed as Kd, was 4.06 nM; the off-rate (koff) stood at 0.00032 s⁻¹; the kon is 78800 M⁻¹ s⁻¹. Moreover, in the assay with AAV5 [2], the affinity, expressed as Kd, was 1.11 nM; the koff is 0.00022 s⁻¹; the on-rate (kon) worked out at 198000 M⁻¹ s⁻¹. Besides, in the assay with AAV8 [3], the dissociation constant (Kd) turned out to be 2.23 nM, the dissociation rate constant (koff) was found to be 0.00044 s⁻¹ and the kon came to 198000 M⁻¹ s⁻¹.

B2: A4-062 (VHH)
VHH: B1 VHH with P13A, I27S, T32A, A49T, S55T, A73P, V96L, Q101E
As for B2, in the assay with AAV9 [1], the Kd is 1.83 nM, the koff was 6e-05 s⁻¹ and the kon came out at 32800 M⁻¹ s⁻¹. In the assay with AAV5 [2], this molecule displayed a Kd of 0.0635 nM, a koff of 1e-05 s⁻¹ and a kon of 157000 M⁻¹ s⁻¹. For the same molecule, in the assay with AAV8 [3], the dissociation constant (Kd) was 1.39 nM, the koff is 0.00019 s⁻¹ and the association rate constant (kon) worked out at 137000 M⁻¹ s⁻¹.

B3: A4-053 (VHH)
VHH: B1 VHH with S29I, Q38R
For the molecule B3, in the assay with AAV9 [1], the equilibrium dissociation constant (Kd) was 2.6 nM, the off-rate (koff) came to 0.00048 s⁻¹ and the kon was 185000 M⁻¹ s⁻¹. Besides, in the assay with AAV5 [2], the Kd was found to be 7.52 nM, the off-rate constant (koff) turned out to be 0.00121 s⁻¹ and the kon came out at 161000 M⁻¹ s⁻¹. Besides, in the assay with AAV8 [3], binding was put at a Kd of 15.7 nM, the off-rate constant (koff) turned out to be 0.00146 s⁻¹ and the on-rate (kon) turned out to be 93200 M⁻¹ s⁻¹.

B4: A4-057 (VHH)
VHH: B1 VHH with L46K
In the assay with AAV9 [1], B4 had a dissociation constant Kd of 53.3 nM, a koff of 0.00049 s⁻¹ and an on-rate constant (kon) of 9190 M⁻¹ s⁻¹. For the same molecule, in the assay with AAV5 [2], binding was characterised by a dissociation constant (Kd) of 64.4 nM, the koff is 0.00027 s⁻¹ and the kon is 4200 M⁻¹ s⁻¹. For the same molecule, in the assay with AAV8 [3], binding was characterised by a dissociation constant (Kd) of 103 nM, the koff turned out to be 0.00031 s⁻¹ and the kon stood at 3020 M⁻¹ s⁻¹.

B5: A4-065 (VHH)
VHH: B1 VHH with P13S, S26R, I27N, I30L, M33V, A49T, D60G, Q101E
With B5, in the assay with AAV9 [1], the Kd is 8.44 nM, the koff turned out to be 0.00139 s⁻¹ and the kon came out at 165000 M⁻¹ s⁻¹. In the assay with AAV5 [2], this molecule gave a dissociation constant (Kd) of 25 nM, a koff of 0.00155 s⁻¹ and an on-rate (kon) of 61900 M⁻¹ s⁻¹. In the assay with AAV8 [3], this molecule yielded a Kd of 184 nM, an off-rate constant (koff) of 0.00095 s⁻¹ and a kon of 5180 M⁻¹ s⁻¹.

B6: A4-063 (VHH)
VHH: B1 VHH with S26R, I27R, S29T, Q38R, A49T, V50I, D60G, A73P, V96I
Regarding B6, in the assay with AAV9 [1], the Kd worked out at 81.6 nM, the off-rate constant (koff) worked out at 0.00401 s⁻¹ and the kon was 49100 M⁻¹ s⁻¹. In the assay with AAV5 [2], this molecule displayed an equilibrium dissociation constant (Kd) of 128 nM, a koff of 0.00834 s⁻¹ and a kon of 65000 M⁻¹ s⁻¹. In the assay with AAV8 [3], binding was put at a Kd of 439 nM, the off-rate (koff) was determined as 0.0065 s⁻¹ and the on-rate constant (kon) turned out to be 14800 M⁻¹ s⁻¹.

B7: A4-066 (VHH)
VHH: B1 VHH with P13T, S26R, I27A, I30L, A49T, D60G, Q101E
In the case of B7, in the assay with AAV9 [1], binding was characterised by a dissociation constant (Kd) of 32.8 nM, the off-rate (koff) was determined as 0.00101 s⁻¹ and the kon is 30700 M⁻¹ s⁻¹. Also, in the assay with AAV5 [2], binding was put at a Kd of 20.7 nM, the koff worked out at 0.00191 s⁻¹ and the kon is 92100 M⁻¹ s⁻¹. Besides, in the assay with AAV8 [3], binding was put at a Kd of 21.6 nM, the koff is 0.002 s⁻¹ and the kon turned out to be 92400 M⁻¹ s⁻¹.

B8: A4-069 (VHH)
VHH: B1 VHH with S29T, T32S, Q43W, A49T, S55N, D60N, S83T, V96L, Q101D
Take B8: in the assay with AAV9 [1], the equilibrium dissociation constant (Kd) was 9.34 nM, the off-rate constant (koff) worked out at 0.00098 s⁻¹ and the kon was determined as 105000 M⁻¹ s⁻¹. In the assay with AAV5 [2], the dissociation constant Kd worked out at 3.58 nM, the koff came out at 0.0002 s⁻¹ and the association rate constant (kon) is 55800 M⁻¹ s⁻¹. Also, in the assay with AAV8 [3], binding was put at a Kd of 11.6 nM, the koff worked out at 0.00142 s⁻¹ and the kon came to 122000 M⁻¹ s⁻¹.

B9: A4-060 (VHH)
VHH: B1 VHH with I27T, I30L, L46I, A49T, D60E, S103T
In the assay with AAV9 [1], B9 registered a Kd of 69.2 nM, an off-rate constant (koff) of 0.00176 s⁻¹ and an on-rate constant (kon) of 25400 M⁻¹ s⁻¹. Further, in the assay with AAV5 [2], the Kd is 2.45 nM, the dissociation rate constant (koff) was 0.00045 s⁻¹ and the association rate constant (kon) was 184000 M⁻¹ s⁻¹. In the assay with AAV8 [3], this molecule gave an equilibrium dissociation constant (Kd) of 6.63 nM, a koff of 0.00055 s⁻¹ and an association rate constant (kon) of 82900 M⁻¹ s⁻¹.

B10: A4-061 (VHH)
VHH: B1 VHH with I27R, I30L, A49T, D60N, S103T
Take B10: the equilibrium dissociation constant (Kd) with AAV9 [1] was determined as 273 nM; in the assay with AAV5 [2], 86.8 nM; in the assay with AAV8 [3] it was 530 nM. For the same molecule, the koff is 0.0013 s⁻¹ with AAV9 [1], 0.00055 s⁻¹ with AAV5 [2] and 0.00057 s⁻¹ in the assay with AAV8 [3]. Besides, the results for the kon with AAV9 [1] and with AAV5 [2] were 4770 M⁻¹ s⁻¹ and 6330 M⁻¹ s⁻¹, respectively.

B11: A4-049 (VHH)
VHH: B1 VHH with I27M, S55N, D60G
In the assay with AAV9 [4], B11 gave an equilibrium dissociation constant (Kd) of 93.1 nM, a koff of 0.00194 s⁻¹ and an on-rate (kon) of 20800 M⁻¹ s⁻¹. Moreover, in the assay with AAV5 [5], the affinity, expressed as Kd, was 9.61 nM; the koff is 0.00158 s⁻¹; the on-rate constant (kon) worked out at 164000 M⁻¹ s⁻¹. In the assay with AAV8 [6], this molecule came in with a Kd of 20.8 nM, a koff of 0.00056 s⁻¹ and a kon of 26900 M⁻¹ s⁻¹.

B12: A4-058 (VHH)
VHH: B1 VHH with G41A, L46I, A49T, G53D, D60E, V96L, S103T
As to B12, in the assay with AAV9 [1], the Kd is 6.11 nM, the off-rate (koff) is 0.0012 s⁻¹ and the kon was 196000 M⁻¹ s⁻¹. In the assay with AAV5 [2], this molecule came in with a Kd of 24.5 nM, an off-rate constant (koff) of 0.00129 s⁻¹ and a kon of 52600 M⁻¹ s⁻¹. In the assay with AAV8 [3], this molecule came in with a dissociation constant (Kd) of 33.4 nM, a koff of 0.00173 s⁻¹ and a kon of 51800 M⁻¹ s⁻¹.

B13: A4-059 (VHH)
VHH: B1 VHH with L10A, I27H, I30L, Q38R, A49T, V77I, S103T
In the assay with AAV9 [1], B13 gave a Kd of 0.514 nM, a koff of 6e-05 s⁻¹ and an on-rate (kon) of 117000 M⁻¹ s⁻¹. Further, in the assay with AAV5 [2], binding was put at a Kd of 16.6 nM, the off-rate constant (koff) is 0.00091 s⁻¹ and the kon turned out to be 54900 M⁻¹ s⁻¹. In the assay with AAV8 [3], this molecule came in with a Kd of 29 nM, a koff of 0.00094 s⁻¹ and an association rate constant (kon) of 32500 M⁻¹ s⁻¹.

B14: A4-050 (VHH)
VHH: B1 VHH with I27S, S29V
On to B14, for which the Kd stood at 2.52 nM with AAV9 [4], 7 nM with AAV5 [5] and 2.44 nM with AAV8 [6]. Moreover, the off-rate (koff) stood at 0.00049 s⁻¹ with AAV9 [4], 7e-05 s⁻¹ in the assay with AAV5 [5] and 0.00043 s⁻¹ with AAV8 [6]. Moreover, the kon with AAV9 [4] was determined as 194000 M⁻¹ s⁻¹; with AAV5 [5] it was 10000 M⁻¹ s⁻¹; in the assay with AAV8 [6], 176000 M⁻¹ s⁻¹.

B15: A4-052 (VHH)
VHH: B1 VHH with S29I
In the case of B15, in the assay with AAV9 [1], binding was put at a Kd of 7.38 nM, the koff came to 0.00077 s⁻¹ and the kon amounted to 104000 M⁻¹ s⁻¹. In the assay with AAV5 [2], this molecule yielded a Kd of 388 nM, a dissociation rate constant (koff) of 0.00056 s⁻¹ and a kon of 1440 M⁻¹ s⁻¹. Moreover, in the assay with AAV8 [3], the Kd came out at 47.6 nM and the koff worked out at 0.00151 s⁻¹.
